From a protein production outcome set (Wang et al. 2014)

Experiment: label from the status in PepcDB records

Sequence	protein production
MTVEPFRNEPIETFQTEEARRAMREALRRVREEFGRHYPLYIGGEWVDTKERMVSLNPSAPSEVVGTTAKAGKAEAEAALEAAWKAFKTWKDWPQEDRSRLLLKAAALMRRRKRELEATLVYEVGKNWVEASADVAEAIDFIEYYARAALRYRYPAVEVVPYPGEDNESFYVPLGAGVVIAPWNFPVAIFTGMIVGPVAVGNTVIAKPAEDAVVVGAKVFEIFHEAGFPPGVVNFLPGVGEEVGAYLVEHPRIRFINFTGSLEVGLKIYEAAGRLAPGQTWFKRAYVETGGKDAIIVDETADFDLAAEGVVVSAYGFQGQKCSAASRLILTQGAYEPVLERVLKRAERLSVGPAEENPDLGPVVSAEQERKVLSYIEIGKNEGQLVLGGKRLEGEGYFIAPTVFTEVPPKARIAQEEIFGPVLSVIRVKDFAEALEVANDTPYGLTGGVYSRKREHLEWARREFHVGNLYFNRKITGALVGVQPFGGFKLSGTNAKTGALDYLRLFLEMKAVAERF	not failed
MTVETFHPKQTTTLETPAKTLEAASADSVNTGNVATGNRIGFVSLGCPKNLVDSERILTQLRIDGYEVTNSYDNADLVIVNTCGFIDAAVEESLDAVREALEENGKVIVTGCLGAKENQIREVHPDVLEITGPHSYEAVLKHVHKYVPKPEHNPFTSLIPQTGVKLTPKHYAYLKISEGCDNRCTFCIIPALRGDLDSRGAGSVLDEAKRLVEAGVQEILVVSQDTSAYGKDKGGRTDFWNGMPVKQDITSLARQLGKMGAWVRLHYIYPYPWVDDLIPLMAEGLILPYLDIPMQHASPRILKMMKRPGRVDRQLEAIQRWREICPDLVIRSTFIVGFPGETEEDFEMLLDFLREARLDRVGCFKYSEVEGAVANTIAELISEEVKEDRYHRFMEVQAEISAERLARFVGRTMDILIDDVDEEGAIGRSFADAPEIDGMVFINGETELEPGMLVRAVITHSDEHDLWAELVDADAEDEVEALEHHHHHH	not failed
MTVKAVFFDIDGTLLNDRKNIQKTTQKAIQQLKKQGIMVGLATGRGPGFVQPFLENFGLDFAVTYNGQYILTRDKVLYQNQLPKSMIYKVIRYANEKKREISLGTASGLAGSRIIDMGTSPFGQVISSFVPKSWARTVEGSFKHLIRRIKPQSFRNLVTIMREPIYQVVLVASQAETKKIQEKFPHIKITRSSPYSLDLISVDQSKIKGIERLGEMFGFDLSEVMAFGDSDNDLEMLSGVGIGIAMGNAETVVKDGAHFTTDSNNNDGISKALAHYGLIH	failed
MTVQSGELRPNLIALKTIVYREVHRFMRIWPQTLLPPAITMVLYFVIFGNLIGRQIGDMGSFTYMQYIVPGLIMMSVITNSYGNVVSSFFGAKFQHSIEELMVSPVSPHTILIGYTLGGVLRGLMVGFIVTMLSMFFTDLQVHHLGVTIVVVVLTATIFSLLGFINAVFARNFDDISIIPTFVLTPLTYLGGVFYSINLLPPFWQTVSLANPVLHMVNAFRYGILGVSDIKISIALAFMIVATFVLYFGCARLLVSGRGMRQ	failed
MTVRYFAAAAAAAGIETESLEIATGTSVAELVERLGARNPELARVLKRCSYLCDEVAVRDMAKPLVTPQTVDVLPPFAGGLEHHHHHH	failed
MTVTAPNALNFECETGNYHTFCPISCVAWLYQKIEDSFFLVIGTKTCGYFLQNAMGVMIFAEPRYAMAELEEGDISAQLNDYEELKRLCLEIKRDRNPSVIVWIGTCTTEIIKMDLEGLAPKLEAEIGIPIVVARANGLDYAFTQGEDTVLAAMAARCPTSTAISDPEERNPIQRLLNFGKKKEEVQAQSSQYHPHPPLVLFGSLPDPVVTQLTLELKKQGIKVSGWLPAKRYTELPVIDEGYYVAGVNPFLSRTATTLIRRRKCQLITAPFPIGPDGTRTWIEQICATFGIQPQGLAEREAETWQKLSDYLELVRGKSVFFMGDNLLEISLARFLIRCGMRVLEIGIPYMDKRYQAAELALLSQTCAEMGHPLPTIVEKPDNYNQLQRIKALQPDLVITGMAHANPLEARGISTKWSVEFTFAQIHGFGNARDILELVTRPLRRNQALAGLGWQKLVAH	not failed
MTVTNMTEWFAKGVEALHHDHVYLARACFEQAVTEQRSPLSSSYLALCQAKTRGTFSDAIASAREAVAADPANPALYHNLGCIYLLAGKRTEAIETFRQGLRVGLEHHHHHH	not failed
MTVVSVDKDVEALSFSIVAEFDADVKRVWAIWEDPRQLERWWGPPTWPATFETHEFTVGGKAAYYMTGPDGTKARGWWQFTTIEAPDHLEFDDGFADEHGAPVDELGVTHATVKLEPLENRTRMTIISTFESEEQMQKMAEMGMEEGMREAIEQIDAVLSEPANALEHHHHHH	not failed
MTWLLIFASLAYVIFLFAVATWGDRLGSWANKISHKPVVYSMSLAIYCTSWTYYGAVGNAAVDGWAFFPILLGPILLFLFGIRILEKLVSVSKQQNITSIADFISSRFGKRRRLAVAVTAIAAVAIIPYIALQLKAVGISFAVLTESSGVMAQFSIKELGAAALMAIFAMLFGTRHVEVTEYRSGMILAIAVESMIKLVALLAAGVFAWFLIQGDAQSDLFSSFSDATKPQWSFAAFGEFEFIVQTLMAAGAILCLPRQFHVAVVDNVDVRHLRTARWGFPLYLALTAAAIVPIAIAGTFYLSATTDGSTFALQLPLLKDQLWLSLVIFIGGISAATAMVIIASVTLSTMITNDVIMPILLQRESRLPLKHRRREYDRALLLIRRVAIAVTMVLSFLCYYFWAARTNLVSIGLLAFSLVLQLLPALLAALYWRKGHARGVYAGLAAGSVGWVLAVLIPLYTDLQLTDVEIITRGTVVSLALNCFGFIVFSLLAKPRLVDRIQATAFVKPRAALPDLHFNKNDSATNADMLLLLRTFLGAERAQQLMQYYQRPENTELPLEGVAEKTFISFVERAIAGVLGSATARSLVDAALRDKQLNLEEVVHFFDDTTQALQTQQSILFSSLENLAQGISVVDAELRLVAWNKRYMDLFQYPEGMVKPGQPIATLIRYNAERGECGPGDVDGLVNKRLRYMQLGSAHRFIRRRADGRVIEMVGNPLPTGGFVTSFTDITSHVETQQALEDANIDLEQRVDVRTQEIREINQELTAEIDRRRQVEDELKKAKAEAEATNASKTRFLALASHDILQPLNAARLYLSAIQEKELSERNLSLVGKLDTALGSTEHLLSTLLSIAKMDQGALKPQFRHVQLSSLLEPLVEEYAVLAEQRKLDFRAFYKDRPVYTDPTYLRRIVQNFLSNAIKYTQRGSVLLGVRKRGDELQIAVWDTGPGIAAQQQNKVFDAFYRVQNQTVDGVGLGLSVAQRMGEQLNCDVQVESVEGKGSCFSVRVPLGNAAQVVSRPKKQLEDALSDPLQLIVVDDDNENLSALSALLNKWGCEALTFNRYSKALAYAKAHSQNKAPHGLLLDYQLGDGDGLQLAQELRDIWQQQIPAALVTAMRDDAVKQAARKSGLQFLPKPAKPAALKAFLKYISTRKAGGARS	failed
MTWLMVAVVVVVAAAGLLRWRRPAWYWLTFGALVATVRILVRYASVMEACGLTVPPSRWRLALARMTNRPAPESRPPRILRLRPTRTGLVLRLKLQPGQDAFDVAAATDRLRHSFGVYGVTSRELRSGVVEVRMTGYDVLQRVQMPAPAEPRPMRIPVALREDGAVHYRDYRAVPHGLTLGATESGKSVYQRNLVAGLAPHHVALVGIDCKQGVELFPLARRFSALADNPDTALDLLEALVGHMKDVYQLIRAEQRISVAVPDAEIAADIWDLREDLRAVPVVVLVDEVAELALFASKDEEKRRDRIITALVRLAQLGRAAGIYLEICGQRFGSELGKGITMLRAQLTGRTAHRVNDETSADMAFGDLSPDAVLAAIQLPTDTPGIAVTGDSTGGWARIRAPHTTKSFPDRQKRLAELWLIEIASDMSRGRYVDPRAARVTFKGYAVKWLETHGIDPASQVVVEQRLRLHAFRLIGSRPLDSFRPEHIRGLVSALENDPAVSGGYARNIYGDVRAVLSAAVDDGLLPRNPCSAKSVRPPAVEQRRVVPWLPEQVQAVRAALPQRYRPMVDMGAGCGLRQGEIVGLAEDAVDFASGIVRVLRQVKLIRGKAVFAPPKCNKERDVPLPPSVADALPAHMDAFKPVEITLPWRKPDGPKVSARLLFTNTASGLVWRSNFNVQEWKPALAAAGLISEAGADGKYESAREHGMHALRHFYASVLLDAGESIKAVSEYLGHADPGLTLRVYAHLMPSSQERTRSAIDQSLRFSG	failed
MTWRKLSICMMVKDEEKNLKRCLESLKPILKGDEVELIVVDTGSKDRTVEIAKQYTNNIFYKPWNYNFSEMRNYTISLAKGEWIFILDADEELEDAKIILKEIEMAEKEGANAINIAVKNLVEENNKQNFVFGFSPRLFRNGFIKYEGAVHNQPIFRPPIYNSKIVIYHYGYIMNDTKLMEYKYKRTVSLLKKELEKDPLNIYYRYQLGVSYSMYGKIREAIEEFGKVYNLLKMENSEIKKGLVVVYGLYANNLLLLGLFDKALEVAEEGLNFNDEYIDLYYIAGLSLYAMGRRQEALVYFKKYMDLFKKVDQIKLLYDARVVFYNISNSYFDNVNAMVVQYLLDINNFLEAKVHIEQFKDNKLKLQYSTLLHIKEKNFNELFDFYSSCNQEDKEKVSEFIEKYITYFKFDEDERLEIYKKFSESNDVYGKYCCIITKKEKVESAILNIFDSNVFELLPSFYTKVLFRVAEKKEFLLETLKKIDVMVLRAKTAEALAAKFIDFEDVIQLLEVMKKEKADIDISARYIALALLVLLNFPRQSDERLYEIFLNYTENGILLISRLYKSEEIEEKYRYFLSEEEKYFALMYMIYLSLQEKRMDKSIKYLREAISTMPKLVKHLKRFSKDILGVDV	failed
MTWSHWEITPFITSVFFILGVLTLFWVSQNWIINFFNTHHWRVDQSLITDWYGLIYMMLFVFGMQTAVVGQNDAWIFMNFQLIGLTFCGYFLNVRVRYYYLYPLVFIFMGFNHSLYYWESWGHAVTLILFFTALGRLRKHVPLQTKQGQVTLYLVTCAGFGAVLWWFMKLKFNLSWATYWQEWTYLLVFASLLYIYASMLSANAHLKQNLVAFANHDALTKIENFAAYKTAINYQVTSSRKNGSQLTMLMFDIDHFKQVNDTYGHLAGDKILQHVAQVATIVFHANNPQISLYRTGGEEFNVIFPNYDLTEALAVAEQLFAAINHIAVPVNDHQIQLSISIGLSELAADDQSPTAFYQRVDANLYHSKKHGRMQITAK	failed
MTYCVAMRLDAGLVFLSDSRTNAGVDAISTFRKMTVFEREGDRVMVLLTAGNLAISQAVRQVLTEARDKARSLWTARDMFEATTIVGEAVREVYDRDAAALAKAKIDFNVSIIFGGQIGGERPRLFNVYAAGNFIEATPENCYFQIGEAKYGKPIIDRLIRASLPLDEAAKCALISMDSTLKSNISVGLPLDLLVYEADSLRVTRFVAIDEENPYFAMIRSTWGKRLRQVFAEIEDPDWQTGTHPAHPLRRAGHPTAEVEPVRIAPPAAPPAAEGAAVPQRAPGPAFGQGAAAQRVAGGSHEPH	failed
MTYDLTVIIPVYNTEKYLRRCLESIVNQDDIEQCSIKVICINDGSTDESRKIIEEFVEKYSYIEIFNKENGGLADVRNTGLQFINDSLYTVSLDSDDFWDKSFLTEFNKYKSSNYDLIFFDINLVDCDGNPVKELIVNPKFDKYNKKKDFMVVKHAAWSKICRTNLYDNINFPKGKLYEDLAVMPYLTSRAERIHYIQKPLINYVINTPGSIMNSSKSNIFDIYDSLIHLFNLFGNHFEKYRNELQYLAIEHLCVGHTYRLLNYPEATKQDFKDIVIFMEKYFGKHWDKNKYVKRGVQKVNINSSLSYVVPVFLKFLKYGGIIKLYDIKRVLLSKK	failed
MTYEIVIAGFGGQGVLSMGKILAYSGLMEDKEVSWMPSYGPEQRGGTSNVTVIVSDEQVSSPVLNEYDIVIVLNQPSLDKFEARVKKGGILVYDPDSIVLKNKRDDIQIYEVDATQESLRMGNQK	failed
MTYHASTPSTPLLVTGGTGTLGGHVVPLLREAGHDVRVLTRRTRPATGNGITYVTGDLRTGEGVEAAVDGVHTVLHLAGGPKGDDEATRTLVRAAARADVRHLAYISVVGADRVPLAWLRTKLESERAIADSGLGWTVLRAAQFHELTLTMIEKMTRLPVLPVPGGLRLQPVAAREVAVRLAELTLAEPSGRVPDMTGPEVLDLATLAHSYLDLRGGRRRPKLPVRIPGKAGRAYRSGQNLTLEDALVGKVTWTEFLAERAAV	failed
